Tested on: F1*sub RNA substrate (template-directed ligation)
Assay: fraction ligated after 30 min (ligated reads / total reads); higher = more ligase activity; sequences stand for … in GAGACCGCAACTGAAAAGTTGT…AGTTCTGCACGTAGAAGCAAAAGGC
Conditions: 42 °C
Method in brief: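 The ligase ribozyme variants were produced by PCR amplification of oligo-pool templates, T7 transcription and purification on gel. Their ligated and unligated forms were gel-separated, then reverse transcribed with barcoded primers before MiSeq sequencing. Core bases were filtered at a quality of ≥20, and fraction ligated per variant was ligated reads over total reads.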

Compared with “TATCACTGTCGTAGACCTTTGGATGGGTTGA [3d1389]”, TATACTGTCGTAAGCACTTTGGATGGGTTGA [3d785] is lower in fraction ligated: 0.837 for the first, 0.759 for the second.

Going from “TATCACTGTCGTAAGACACTTTGGATGGTTG [3d1461]” to ATACTTTCGTAAGACACTTTGGATGGGTTGA [3d49], the fraction ligated falls from 0.33 to 0.0977.

Going from “TATCACTTGTCGAAGCACTTTGGAGGGTTGA [3d1931]” to TATACTTGTCTAAGACACTTGGATGGGTTGA [3d850], the fraction ligated rises from 0.108 to 0.766.

Compared with “TATCACTTGTCTAAGACACTTTGGATGGTTGA [2d205]”, “TATCATTGCTAAGACACTTTGGATGGGTTGA [3d1157]” is higher in fraction ligated: 0.588 for the first, 0.784 for the second.

Compared with TTCACTTTCGTAAGACATTTGGATGGGTTGA [3d363], “TATCATTGTCGAAGCACTTTGGATGGGTTGA [3d1203]” is higher in fraction ligated: 0.775 for the first, 0.784 for the second.

First: TACACTTTCTAAGACACTTTGGATGGGTTGA [3d586]
Second: TTCATTGTCGTAAGACACTTTGGATGGGTTGA [2d27]
The fraction ligated of the first is lower: 0.0445 for the first, 0.509 for the second.

Compared with ATACTTGTCGTAAGACATTTGGATGGGTTGA [3d59], “TATCATGTCGTAAGACACTTGGATGGGTTGA [3d1133]” is higher in fraction ligated: 0.446 for the first, 0.776 for the second.

Going from “TATCACTTGTCGAAGAACTTTGGATGGTTGA [3d1940]” to ATCACTTGTCGAAGACACTTTGGATGGTTGA [3d195], the fraction ligated rises from 0.187 to 0.714.

Going from “TATCACTTGTCGTAAGAACTTGGTGGGTTGA [3d2161]” to TATACTTTCGTAAGACACTTTGGATGGGTTA [3d810], the fraction ligated falls from 0.0804 to 0.00702.

Compared with ATCATTGTCGTAAGACACTTTGGATGGGTTA [3d103], TTCACTTGTGTAGACACTTTGGATGGGTTGA [3d389] is higher in fraction ligated: 0.093 for the first, 0.762 for the second.

First: TATCACTTTCGTAAGACACTTGATGGGTTGA [3d1562]
Second: TATCCTTGTTAAGACACTTTGGATGGGTTGA [3d1000]
The fraction ligated of the first is lower: 0.787 for the first, 0.793 for the second.

First: TATACTTGTCGTAGAACTTTGGATGGGTTGA [3d873]
Second: TATCATGTCGTAAGACCTTTGGATGGGTTGA [3d1131]
The fraction ligated of the first is higher: 0.831 for the first, 0.778 for the second.

Compared with TTACTTGTCGTAAGACACTTTGGATGGTTGA [3d295], “TATCATTGTCGTAAACACTTGGATGGGTTGA [3d1230]” is higher in fraction ligated: 0.323 for the first, 0.778 for the second.

First: TATCACTTGCGTAAGAATTTGGATGGGTTGA [3d1659]
Second: TACACTTGTCGAAGACACTTTGGTGGGTTGA [3d654]
The fraction ligated of the first is higher: 0.835 for the first, 0.115 for the second.

First: TATCACTTTCGTAAGACCTTTGATGGGTTGA [3d1548]
Second: TATACTTGTGTAAGACACTTTGGATGGGTTGA [2d74]
The fraction ligated of the first is lower: 0.786 for the first, 0.805 for the second.

Going from “TATCACTTGTCGTAAGACCTTTGGGGGTTGA [3d2196]” to “TATCCTTGTCGTAAGACATTTGGATGGGTTG [3d1096]”, the fraction ligated rises from 0.0519 to 0.772.

First: TTACTTTCGTAAGACACTTTGGATGGGTTGA [3d280]
Second: TATCATGTCGTAAGAACTTTGGATGGGTTGA [3d1130]
The fraction ligated of the first is lower: 0.0128 for the first, 0.848 for the second.

Going from “TATCACTTGCGTAAGACACTTTGGATGGGTT [3d1703]” to “TATCACTTGCGTAAGACACTTTGGATGGGTTA [2d177]”, the fraction ligated rises from 0.704 to 0.822.

Compared with “TATCATTGTCGTAAGACACTTTGGAGGGTTA [3d1287]”, TATACTTGTCAAGACACTTTGGATGGGTTGA [3d843] is higher in fraction ligated: 0.0162 for the first, 0.705 for the second.

Going from “TATCACTTGTCGTAAGAACTTTGGATGGGTTG [2d261]” to “TATCATTGTCGTAAACACTTTGGATGGGTTA [3d1235]”, the fraction ligated falls from 0.81 to 0.472.

Going from TTCCTTGTCGTAAGACACTTGGATGGGTTGA [3d310] to ATCACTGTCGTAAGACACTTTGGATGGGTTGA [2d6], the fraction ligated falls from 0.776 to 0.739.

First: TTCCTTGTCGTAGACACTTTGGATGGGTTGA [3d304]
Second: TATCACTTGTCGTAGAACTTTGGATGGGTTGA [2d224]
The fraction ligated of the first is lower: 0.77 for the first, 0.864 for the second.

Going from TATACTTGTGTAAGACACTTTGGATGGGTTA [3d841] to “TATCACTGTCTAAGACACTTGGATGGGTTGA [3d1365]”, the fraction ligated rises from 0.134 to 0.789.

— the supplement of paper PMC6755084
